Patent US9115185

T1: HLA-DR3 (DRB*0301), purified from B-lymphoblastic cell line HAR (human)
T1 chain: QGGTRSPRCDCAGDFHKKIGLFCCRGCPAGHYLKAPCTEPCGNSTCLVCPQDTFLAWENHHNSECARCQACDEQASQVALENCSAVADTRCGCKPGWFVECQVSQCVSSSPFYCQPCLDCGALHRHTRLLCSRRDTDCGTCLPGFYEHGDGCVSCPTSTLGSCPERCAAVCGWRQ


Key:
[1] = target: HLA-DR1 (DRB*0101), purified from B-lymphoblastic cell line LG2.1 (human); assay: competition with fluorescent HA 308-319 on purified HLA-DR1
[2] = target: HLA-DR2 (DRB1*0201 [sic]), purified from B-lymphoblastic cell line IWB (human); assay: competition with fluorescent HA 308-319 on purified HLA-DR2
[3] = target: T1, HLA-DR3 (DRB*0301), purified from …; assay: competition with fluorescent hsp65 3-13 on purified HLA-DR3
[4] = target: HLA-DR4 (DRB*0401), purified from B-lymphoblastic cell line BSM (human); assay: competition with fluorescent HA308-319 Y→F on purified HLA-DR4
[5] = target: HLA-DR7 (DRB1*0701), purified from B-lymphoblastic cell line Pitout (human); assay: competition with fluorescent Ii 80-103 on purified HLA-DR7

Binder	IC50 [1] [µM]	IC50 [2] [µM]	IC50 [3] [µM]	IC50 [4] [µM]	IC50 [5] [µM]
STHVDIRTLEDLLMGTLGIVCP (modifications not checked) [HPV16 E7 peptide 71-92, P03129 71-92]	12	2	–	–	–
DLYCYEQLNDSSEEEDEIDGPA (modifications not checked) [HPV16 E7 peptide 21-42, P03129 21-42]	–	12	–	–	–
YMLDLQPETTDLYCYEQLNDSS (modifications not checked) [HPV16 E7 peptide 11-32, P03129 11-32]	–	–	50	–	–
LRYRFKKHCTLYTAVSSTWHWTGHNVKHKS (modifications not checked) [HPV16 E2 peptide 301-330]	–	–	–	10	–
RTLEDLLMGTLGIVCPICSQKP (modifications not checked) [HPV16 E7 peptide 77-98, P03129 77-98]	46	22	–	–	0.9
PAGQAEPDRAHYNIVTFCCKCD (modifications not checked) [HPV16 E7 peptide 41-62, P03129 41-62]	7.4	50	55	38	–
FNSSHKGRINCNSNTTPIVHLKGDANTLKC (modifications not checked) [HPV16 E2 peptide 271-300]	–	–	37	–	–
MHGDTPTLHEYMLDLQPETTDL (modifications not checked) [HPV16 E7 peptide 1-22, P03129 1-22]	–	10	0.8	30	7
CDSTLRLCVQSTHVDIRTLEDL (modifications not checked) [HPV16 E7 peptide 61-82, P03129 61-82]	–	15	65	–	–
AIVTLTYDSEWQRDQFLSQVKIPKTITVSTGFMSI (modifications not checked) [HPV16 E2 peptide 331-365]	–	–	10	15	–
SSTWHWTGHNVKHKSAIVTLTYDSEWQRDQ (modifications not checked) [HPV16 E2 peptide 316-345]	–	–	30	–	–
HYNIVTFCCKCDSTLRLCVQST (modifications not checked) [HPV16 E7 peptide 51-72, P03129 51-72]	70	–	50	–	11
